Experimental data from the RNAGym collection of RNA variant scans (doi:10.7554/elife.80360).

B1: HDV Ribozyme (parent)
chain: GGCCGGCAUGGUCCCAGCCUCCUCGCUGGCGCCGGCUGGGCAACAUUCCGAGGGGACCGUCCCCUCGGUAAUGGCGAAUGGGACCCA

Variants of: B1
Experiment: self-cleavage, relative activity (ratio to wild type); higher = more cleavage; co-transcriptional
GGCCGGCAUGGUCCCAGCCUCCUCGCUGGCGCCGGCUGGGCAACAUUCCGAGGGGACCGUCCCCUCGGUAAUGCCGAAUGGGACCGA [G74C C86G] gave a self-cleavage of 0.201. In the case of GGCCGGCAUGGUCCCAGCCUCCUCGCUGGCGCCGGCUGGGCAACAUUCCGAGUGGACCGUCCCCUCGCUAAUGGCGAAUGGGACCCA [G53U G68C], the self-cleavage is reported as 0.277. In the case of GGCCGGCAUGGUCCCAGCCUCCUCGCUGGCGCCGGCUCGGCAACAUUUCGAGGGGACCGUCCCCUCGGUAAUGGCGAAUGGGACCCA [G38C C48U], the self-cleavage is reported as 0.161. With GGCCGGCAUGGUCCCAGCCUCCACGCUGGCGCCGGCUGGGCAACAUUCCGAGGGGACCGUCCGCUCGGUAAUGGCGAAUGGGACCCA [U23A C63G] the self-cleavage was 0.877. Variant GGCCGGCAAGGUCCCAGCCUCCUCGCUGGCGCUGGCUGGGCAACAUUCCGAGGGGACCGUCCCCUCGGUAAUGGCGAAUGGGACCCA [U9A C33U] has a self-cleavage of 0.808. GGCCGGCAUGGUCCCAGCCUCCUCGCUGGCGCCGGCUGGGCAACAUUCCGAGGGGACCGUCCCCUCGGAAAGGGCGAAUGGGACCCA [U69A U72G] gave a self-cleavage of 0.883. Variant GGCUGGCAUGGUCCCAGCCUCCUCGCUGGCGCCGGCUGGGCAACAUUCCGAGGCGACCGUCCCCUCGGUAAUGGCGAAUGGGACCCA [C4U G54C] has a self-cleavage of 0.795. GGCCGGCAUGGUCCCAGCCUCCUCGCUCGCGCCGGCUGGGCAACAUUCCGAGGGGACCAUCCCCUCGGUAAUGGCGAAUGGGACCCA [G28C G59A] showed a self-cleavage of 0.185. In the case of GGCCGGCAUGGUCUCAGCCUCCUCGCUGGCGCCGGCUGGGCAACAUUCCGAGGGUACCGUCCCCUCGGUAAUGGCGAAUGGGACCCA [C14U G55U], the self-cleavage is reported as 1.24. Work on GGCCGGCAUGGUCCCAGCCACCUCGCUGGCGCCGGCUGGGCAACAUUCCGAGGGGACCGUCCCCUCGGUAAUGGCGAUUGGGACCCA [U20A A78U] yielded a self-cleavage of 0. GGCCGGCAUGGUCCCAGCCUCCUCGCUGGCGCCGGCUGGGCAACAUUCCGAGGGGACCGUCCCCUCGGUGAUGGCGACUGGGACCCA [A70G A78C] gave a self-cleavage of 0.151. CGCCGGCAUGGUCCCAGCCUCCUCGCUGGCCCCGGCUGGGCAACAUUCCGAGGGGACCGUCCCCUCGGUAAUGGCGAAUGGGACCCA [G1C G31C] gave a self-cleavage of 0. GGCCGGCAUGGUCCCAGCCUCCUCGCUGGCGCCGGCUGGGCAACAUUUCGAGGGGACCGUCCCCUCGGUAAUGGCGAAUGGAACCCA [C48U G82A] gave a self-cleavage of 0.532. GGCCGGCAUUGUCCCAGCCUCCUCGCUGGCGCCGGCUGGGCAACAUUCCGAGGGGACCGUCCCCUCCGUAAUGGCGAAUGGGACCCA [G10U G67C] showed a self-cleavage of 0.572. For GGCCGGCAUGGUCCCAGCCUCCUUGCUGGCGCCGGCUGGGCAACAUUCCGAGGCGACCGUCCCCUCGGUAAUGGCGAAUGGGACCCA [C24U G54C], the self-cleavage was 0.748. GGCCGGCAUGGUCCUAGCCUCCUCGCUGGCACCGGCUGGGCAACAUUCCGAGGGGACCGUCCCCUCGGUAAUGGCGAAUGGGACCCA [C15U G31A] gave a self-cleavage of 0.302. For GGCCGGCAUGGUCCCAGCCUCCUCGCUGGCGCCGGCUGGGCAACAUUCCGAGGGGACCGUCCCCUCGGGAAUGGCGAUUGGGACCCA [U69G A78U], the self-cleavage was 0.277. In the case of GGCCGGCAUGGUCCCAGCCUCCUCGCUGGCGCCGGCAGGGCAACAUUCCGAGGGGACCGUCCCCUCGGUAAUGGCGGAUGGGACCCA [U37A A77G], the self-cleavage is reported as 0.415. With GGCCGGCCUGGUCCCAGCCCCCUCGCUGGCGCCGGCUGGGCAACAUUCCGAGGGGACCGUCCCCUCGGUAAUGGCGAAUGGGACCCA [A8C U20C] the self-cleavage was 0. For GGCCGGCAUGGUCCCAGCCACCUCGCUGGCGCCGGCUGGGCAACAUUCCGAGGGGACCGUGCCCUCGGUAAUGGCGAAUGGGACCCA [U20A C61G], the self-cleavage was 0.0536. With GGCCGGCAAGGUCCCAGCCUCCUCGCUGGCGCCGGCUGGGCAACAUUCCGAGGGGACCGUCCCCUCGCUAAUGGCGAAUGGGACCCA [U9A G68C] the self-cleavage was 1.16. For GGCCGGCAUGGUCCCAGCCUCCUCGCUGGCGCCGGCUGGGCAAGAUUCCGAGGGGACAGUCCCCUCGGUAAUGGCGAAUGGGACCCA [C44G C58A], the self-cleavage was 1.07. GGCCAGCAUGGUCCCAGCCUCCUCGCUGGCGCCGGCUGGGCAACAUUCCGAGGUGACCGUCCCCUCGGUAAUGGCGAAUGGGACCCA [G5A G54U] gave a self-cleavage of 0.113. GGCCGGCAAGGUCCCAGCCUCCUCGCUGGCGCCGGCUGGGCAACAUUCCGAGGGGACCGUCCCCUCGGUAAUGGCGAGUGGGACCCA [U9A A78G] gave a self-cleavage of 1.04. For GGCCGGCAUGGUCCCAGCCUCCUCGCUGGCGCCGGCUGGGGACCAUUCCGAGGGGACCGUCCCCUCGGUAAUGGCGAAUGGGACCCA [C41G A43C], the self-cleavage was 0.308. Variant GGCCGGCAUGGUCGCAGCCUCCUCGCUGGCACCGGCUGGGCAACAUUCCGAGGGGACCGUCCCCUCGGUAAUGGCGAAUGGGACCCA [C14G G31A] has a self-cleavage of 0.324. Work on GGCCGGCAUGGUCCCAGCCUCCUCGCUGGCGCCGGCUGGGCAACAUUCCGAGGGGACCGUACCCUCCGUAAUGGCGAAUGGGACCCA [C61A G67C] yielded a self-cleavage of 0.831. For GGCCGGCAUGGUCCCAGCCUCCUCGCUGGCGCCGGCUGGGCAACAUUCCGAGGGAACCGACCCCUCGGUAAUGGCGAAUGGGACCCA [G55A U60A], the self-cleavage was 0.99. In the case of CGCCGGCAUGGUCCCAGCCUCCUCGCUGGCGCCGGCUGGGCAACAUUCUGAGGGGACCGUCCCCUCGGUAAUGGCGAAUGGGACCCA [G1C C49U], the self-cleavage is reported as 0.145. GGCCGGCAUGGUCCCAGCCUCCUCGCUGGCGCCGGCUGGGCAACAUUCCGAGGGGACCGUCCCCUCGGUAACGGCGAAUGGGACCUA [U72C C86U] showed a self-cleavage of 0.57. In the case of GGCCGGCAUGGUCCCAGCCUCCUCGCUGGCGCCGGCUGGGCAACAUUGCGAGGGGACCGUCCCCUCGGUAAUGGCGAAUGGAACCCA [C48G G82A], the self-cleavage is reported as 0.403. Variant GGCCGGCACGGUCCCAGCCUCCUCGCUGGCGCCGGCUGGGCAACAUUCCGAGGGGACCGUCCCCUCGGUAAUGGUGAAUGGGACCCA [U9C C75U] has a self-cleavage of 0.138.
